Laboratory results as given in IntAct's records for PubMed 24981741.

B1: Protein LYRIC (Homo sapiens), Q86UE4 (parent)
chain: MAARSWQDELAQQAEEGSARLREMLSVGLGFLRTELGLDLGLEPKRYPGWVILVGTGALGLLLLFLLGYGWAAACAGARKKRRSPPRKREEAAAVPAAAPDDLALLKNLRSEEQKKKNRKKLSEKPKPNGRTVEVAEGEAVRTPQSVTAKQPPEIDKKNEKSKKNKKKSKSDAKAVQNSSRHDGKEVDEGAWETKISHREKRQQRKRDKVLTDSGSLDSTIPGIENTITVTTEQLTTASFPVGSKKNKGDSHLNVQVSNFKSGKGDSTLQVSSGLNENLTVNGGGWNEKSVKLSSQISAGEEKWNSVSPASAGKRKTEPSAWSQDTGDANTNGKDWGRSWSDRSIFSGIGSTAEPVSQSTTSDYQWDVSRNQPYIDDEWSGLNGLSSADPNSDWNAPAEEWGNWVDEERASLLKSQEPIPDDQKVSDDDKEKGEGALPTGKSKKKKKKKKKQGEDNSTAQDTEELEKEIREDLPVNTSKTRPKQEKAFSLKTISTSDPAEVLVKNSQPIKTLPPATSTEPSVILSKSDSDKSSSQVPPILQETDKSKSNTKQNSVPPSQTKSETSWESPKQIKKKKKARRET
B2: Protein LYRIC (Mus musculus), Q80WJ7 (parent)
chain: MAARSWQDELAQQAEEGSARLRELLSVGLGFLRTELGLDLGLEPKRYPGWVILVGTGALGLLLLFLLGYGWAAACAGARKKRRSPPRKREEAAPPTPAPDDLAQLKNLRSEEQKKKNRKKLPEKPKPNGRTVEVPEDEVVRNPRSITAKQAPETDKKNEKSKKNKKKSKSDAKAVQNSSRHDGKEVDEGAWETKISHREKRQQRKRDKVLTDSGSLDSTIPGIENIITVTTEQLTTASFPVGSKKNKGDSHLNVQVSNFKSGKGDSTLQVSSRLNENLTVNGGGWSEKSVKLSSQLSEEKWNSVPPASAGKRKTEPSAWTQDTGDTNANGKDWGRNWSDRSIFSGIGSTAEPVSQSTTSDYQWDVSRNQPYIDDEWSGLNGLSSADPSSDWNAPAEEWGNWVDEDRASLLKSQEPISNDQKVSDDDKEKGEGALPTGKSKKKKKKKKKQGEDNSHTQDTEDLEKDTREELPVNTSKARPKQEKACSLKTMSTSDPAEVLIKNSQPVKTLPPAISAEPSITLSKGDSDNSSSQVPPMLQDTDKPKSNAKQNSVPPSQTKSETNWESPKQIKKKKKARRET
partner: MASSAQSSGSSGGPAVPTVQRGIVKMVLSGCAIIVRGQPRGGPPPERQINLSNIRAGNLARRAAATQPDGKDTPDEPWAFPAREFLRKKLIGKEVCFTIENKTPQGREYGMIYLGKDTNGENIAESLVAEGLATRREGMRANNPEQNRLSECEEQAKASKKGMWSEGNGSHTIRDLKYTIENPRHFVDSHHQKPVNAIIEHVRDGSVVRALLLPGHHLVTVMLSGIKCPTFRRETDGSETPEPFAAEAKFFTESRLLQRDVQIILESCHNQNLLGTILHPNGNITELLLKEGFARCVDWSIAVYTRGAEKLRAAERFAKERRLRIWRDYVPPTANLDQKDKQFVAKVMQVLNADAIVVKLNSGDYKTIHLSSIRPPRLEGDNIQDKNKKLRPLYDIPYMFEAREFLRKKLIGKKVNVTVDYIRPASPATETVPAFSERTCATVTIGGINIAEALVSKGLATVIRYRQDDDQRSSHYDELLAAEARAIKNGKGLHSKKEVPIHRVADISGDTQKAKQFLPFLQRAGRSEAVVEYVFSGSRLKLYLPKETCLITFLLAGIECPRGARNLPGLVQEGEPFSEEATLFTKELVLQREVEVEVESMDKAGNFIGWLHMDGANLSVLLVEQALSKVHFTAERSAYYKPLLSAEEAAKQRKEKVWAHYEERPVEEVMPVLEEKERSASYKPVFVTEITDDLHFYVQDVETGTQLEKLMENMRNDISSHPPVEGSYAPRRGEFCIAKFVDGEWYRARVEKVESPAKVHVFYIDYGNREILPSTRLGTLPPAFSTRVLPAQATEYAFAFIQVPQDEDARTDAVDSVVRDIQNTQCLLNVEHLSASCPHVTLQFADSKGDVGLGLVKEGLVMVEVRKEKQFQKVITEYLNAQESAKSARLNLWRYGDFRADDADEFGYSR

Variants of: B1
Conditions: with snd1_human SND1, Q7KZF4
Chain of snd1_human SND1, Q7KZF4 (Q7KZF4 whole entry): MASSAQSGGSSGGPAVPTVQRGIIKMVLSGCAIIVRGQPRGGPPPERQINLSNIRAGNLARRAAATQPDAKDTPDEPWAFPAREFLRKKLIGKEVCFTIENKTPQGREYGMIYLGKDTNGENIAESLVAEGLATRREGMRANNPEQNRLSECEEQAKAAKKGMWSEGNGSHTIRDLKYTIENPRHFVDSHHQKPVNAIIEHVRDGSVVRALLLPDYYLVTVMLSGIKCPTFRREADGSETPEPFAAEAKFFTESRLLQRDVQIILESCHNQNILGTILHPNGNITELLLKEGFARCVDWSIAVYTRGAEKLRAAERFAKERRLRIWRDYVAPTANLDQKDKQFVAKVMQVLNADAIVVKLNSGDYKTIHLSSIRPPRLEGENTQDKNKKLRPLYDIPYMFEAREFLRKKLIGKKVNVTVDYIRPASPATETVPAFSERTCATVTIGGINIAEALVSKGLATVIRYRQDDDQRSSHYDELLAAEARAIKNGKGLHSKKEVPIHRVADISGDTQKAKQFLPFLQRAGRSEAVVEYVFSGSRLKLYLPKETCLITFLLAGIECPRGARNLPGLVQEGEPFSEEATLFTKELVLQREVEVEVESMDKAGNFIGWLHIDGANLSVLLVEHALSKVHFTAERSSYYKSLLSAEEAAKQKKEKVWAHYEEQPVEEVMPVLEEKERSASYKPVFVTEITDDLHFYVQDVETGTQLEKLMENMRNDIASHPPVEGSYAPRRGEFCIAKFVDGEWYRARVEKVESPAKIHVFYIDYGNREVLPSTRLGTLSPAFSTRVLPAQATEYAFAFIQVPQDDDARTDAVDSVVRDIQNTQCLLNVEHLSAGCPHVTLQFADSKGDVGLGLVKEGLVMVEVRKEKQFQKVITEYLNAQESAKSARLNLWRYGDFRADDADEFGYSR

| effect of a mutation on the interaction | Variant |
| --- | --- |
| decreasing interaction strength | W401D |
| disrupting interaction strength | E399R;E400R;W401D |

The next lines start with the variant.

| Variant | effect of a mutation on the interaction |
| --- | --- |
| D389R;D393R;W394D | disrupting interaction strength |
| W394D | disrupting interaction strength |

Variants of: B1
Conditions: with snd1_human SND1, Q7KZF4
Remark: another data set of the same source

| Variant | effect of a mutation on the interaction |
| --- | --- |
| D389R;D393R;W394D | disrupting interaction strength |

Variants of: B2
Conditions: with snd1_mouse Snd1, Q78PY7

| effect of a mutation on the interaction | Variant |
| --- | --- |
| disrupting interaction strength | W398D |
| disrupting interaction strength | E396R;E397R;W398D |

Further lines, the variant ahead of its results:

| Variant | effect of a mutation on the interaction |
| --- | --- |
| D386R;D390R;W391D | disrupting interaction strength |
| W391D | disrupting interaction strength |
